Assay results as given in publication PMC9634968.

assay: Western blot after 125 nM CXCL12, 30 min, HEK 293T; details: glycan lost; control: wild type

| Protein | degradation_or_half_life |
| --- | --- |
| CXCR4: N15A (protein) parent chain: MSIPLPLLQIYTSDNYTEEMGSGDYDSMKEPCFREENANFNKIFLPTIYSIIFLTGIVGNGLVILVMGYQKKLRSMTDKYRLHLSVADLLFVITLPFWAVDAVANWYFGNFLCKAVHVIYTVNLYSSVLILAFISLDRYLAIVHATNSQRPRKLLAEKVVYVGVWIPALLLTIPDFIFANVSEADDRYICDRFYPNDLWVVVFQFQHIMVGLILPGIVILSCYCIIISKLSHSKGHQKRKALKTTVILILAFFACWLPYYIGISIDSFILLEIIKQGCEFENTVHKWISITEALAFFHCCLNPILYAFLGAKFKTSAQHALTSVSRGSSLKILSKGKRGGHSSVSTESESSSFHSS | increases |
| CXCR4: N15A/N180A (protein) parent chain: MSIPLPLLQIYTSDNYTEEMGSGDYDSMKEPCFREENANFNKIFLPTIYSIIFLTGIVGNGLVILVMGYQKKLRSMTDKYRLHLSVADLLFVITLPFWAVDAVANWYFGNFLCKAVHVIYTVNLYSSVLILAFISLDRYLAIVHATNSQRPRKLLAEKVVYVGVWIPALLLTIPDFIFANVSEADDRYICDRFYPNDLWVVVFQFQHIMVGLILPGIVILSCYCIIISKLSHSKGHQKRKALKTTVILILAFFACWLPYYIGISIDSFILLEIIKQGCEFENTVHKWISITEALAFFHCCLNPILYAFLGAKFKTSAQHALTSVSRGSSLKILSKGKRGGHSSVSTESESSSFHSS | increases |
| CXCR4: N180A (protein) parent chain: MSIPLPLLQIYTSDNYTEEMGSGDYDSMKEPCFREENANFNKIFLPTIYSIIFLTGIVGNGLVILVMGYQKKLRSMTDKYRLHLSVADLLFVITLPFWAVDAVANWYFGNFLCKAVHVIYTVNLYSSVLILAFISLDRYLAIVHATNSQRPRKLLAEKVVYVGVWIPALLLTIPDFIFANVSEADDRYICDRFYPNDLWVVVFQFQHIMVGLILPGIVILSCYCIIISKLSHSKGHQKRKALKTTVILILAFFACWLPYYIGISIDSFILLEIIKQGCEFENTVHKWISITEALAFFHCCLNPILYAFLGAKFKTSAQHALTSVSRGSSLKILSKGKRGGHSSVSTESESSSFHSS | no change |
